Source: paper PMC6631453, “Set-Up and Validation of a High Throughput Screening Method for Human Monoacylglycerol Lipase (MAGL) Based on a New Red Fluorescent Probe” (Molecules, 2019)

Assays:
[1] = target: T1, human recombinant monoacylglycerol lipase (hMAGL) (Homo sapiens, UniProt Q99685); experiment: fluorogenic assay with substrate 1c, […] min pre-incubation; type: biochemical
T1 construct: gene MGLL
T1 sequence (Q99685 1-303): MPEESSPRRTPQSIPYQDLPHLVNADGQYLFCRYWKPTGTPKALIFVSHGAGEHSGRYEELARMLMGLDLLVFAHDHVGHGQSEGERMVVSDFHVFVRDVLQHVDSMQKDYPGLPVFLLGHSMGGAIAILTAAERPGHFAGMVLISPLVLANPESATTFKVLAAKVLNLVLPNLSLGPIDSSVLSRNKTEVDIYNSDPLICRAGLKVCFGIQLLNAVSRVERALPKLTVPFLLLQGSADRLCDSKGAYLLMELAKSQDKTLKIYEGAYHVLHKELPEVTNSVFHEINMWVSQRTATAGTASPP

[2] = target: T1, human recombinant monoacylglycerol lipase (hMAGL); experiment: fluorogenic hydrolysis at […], normalized to 1c; type: biochemical
[3] = substrate: CCCCCCC(CCCC)C(=O)Oc1ccc2nc3ccc(=O)cc-3oc2c1; experiment: fluorogenic hydrolysis kinetics (Km), very low Vmax; type: biochemical, Homo sapiens
purified protein = substrate: CCCCCCCC(=O)Oc1ccc2nc3ccc(=O)cc-3oc2c1; experiment: purified protein; type: biochemical, Homo sapiens
[4] = substrate: CCCCC(C)C(=O)Oc1ccc2nc3ccc(=O)cc-3oc2c1; experiment: fluorogenic hydrolysis kinetics (Km); type: biochemical, Homo sapiens
[5] = substrate: CCCCCCCC/C=C\CCCCCCCC(=O)Oc1ccc2nc3ccc(=O)cc-3oc2c1; experiment: fluorogenic hydrolysis kinetics (Km); type: biochemical, Homo sapiens
[6] = substrate: CCCCCCCCCCCC(=O)Oc1ccc2nc3ccc(=O)cc-3oc2c1; experiment: fluorogenic hydrolysis kinetics (Km); type: biochemical, Homo sapiens
[7] = substrate: CCCCC(CC)C(=O)Oc1ccc2nc3ccc(=O)cc-3oc2c1; experiment: fluorogenic hydrolysis kinetics (Km), low Vmax; type: biochemical, Homo sapiens

`O=C(Nc1cccc(-c2ccccc2)c1)OC1CCCCC1` [URB602] showed an IC50 [1] of 8.1 µM.

For `CCCCC/C=C\C/C=C\C/C=C\C/C=C\CCCC(=O)Oc1ccc2nc3ccc(=O)cc-3oc2c1` [1g, 7-hydroxyresorufinyl arachidonate], the “fluorogenic hydrolysis at 5 μM, normalized to 1c” value [2] was “Normalized hydrolysis of different substrates by hMAGL”.

B1: human recombinant monoacylglycerol lipase (hMAGL) (Homo sapiens) (protein)
chain: T1 sequence (Q99685 1-303)
B1 showed a Km [3] of 1.1 µM, a Vmax [3] of 0.00067 µmol/min/mg and a Km (purified protein) of 0.66 µM. For the same molecule, the Vmax (purified protein; catalytic active site near Ser122 (docking only)) was 0.106 µmol/min/mg, the Km [4] was 1.09 µM and the Vmax [4] was 0.033 µmol/min/mg. For the same molecule, the Km [5] was 0.42 µM, the Vmax [5] was 0.013 µmol/min/mg and the Km [6] was 0.31 µM. It also gave a Vmax [6] of 0.024 µmol/min/mg, a Km [7] of 2.8 µM and a Vmax [7] of 0.0013 µmol/min/mg.
